According to US11981935B2, “7β-hydroxysteroid dehydrogenase mutants and process for the preparation of ursodeoxycholic acid” (PharmaZell GmbH, priority 2010, dated 2024):
Where a chain is given by its changes, count along the chain named. Names may count otherwise.

Experiments:
[1] = molecular target: 7β-HSDH from Collinsella aerofaciens DSM 3979 (Collinsella aerofaciens, UniProt A4ECA9); assay type: biochemical
[2] = molecular target: T1, 7β-HSDH from Collinsella aerofaciens DSM 3979 (ATCC 25986), wild type, SEQ ID NO:2 (Collinsella aerofaciens, UniProt A4ECA9); experiment: Enzyme assay and kinetic analysis of 7β-HSDH (Lineweaver-Burk); assay type: biochemical; settings: pH 8, 25° C.
T1 construct: The gene coding for 7β-HSDH was once again amplified from the genomic DNA by PCR; made in house; host or cells: E. coli BL21(DE3), pET-28a(+)
T1 sequence (A4ECA9 1-263): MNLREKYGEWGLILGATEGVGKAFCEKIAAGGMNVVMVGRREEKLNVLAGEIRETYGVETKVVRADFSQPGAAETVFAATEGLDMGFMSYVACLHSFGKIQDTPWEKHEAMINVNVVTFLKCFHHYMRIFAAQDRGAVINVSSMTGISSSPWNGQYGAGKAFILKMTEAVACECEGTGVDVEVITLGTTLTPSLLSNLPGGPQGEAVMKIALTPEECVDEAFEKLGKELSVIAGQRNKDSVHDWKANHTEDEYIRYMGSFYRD

7β-HSDH = 7β-HSDH (Collinsella aerofaciens, UniProt A4ECA9); experiment: Photometric identification of 7β-HSDH activity (production example 1); assay type: biochemical, Collinsella aerofaciens ATCC 25986; settings: 0.1 mM test substance, potassium phosphate buffer 50 mM pH 8, in the presence of NADP+ or NADPH
Description: For identification of 7β-HSDH activity, the activity was investigated by a photometric method. In a 1 ml cuvette, enzyme and 0.1 mM of test substance (UDCA) were mixed in potassium phosphate buffer (50 mM, pH8).

[3] = molecular target: T2, 7β-HSDH from Collinsella aerofaciens, wild type (WT), SEQ ID NO:2 (Collinsella aerofaciens, UniProt A4ECA9); experiment: Kinetic measurements of 7β-HSDH variants (microtiter plate photometer, cell lysate); settings: 100 μM NADPH, varied DHCA, Michaelis-Menten model with substrate inhibition
T2 sequence (A4ECA9 1-263): T1 sequence (A4ECA9 1-263)

[4] = molecular target: T3, Collinsella aerofaciens 7β-HSDH mutant G39A (parent SEQ ID NO:2) (Collinsella aerofaciens, UniProt A4ECA9, G39A); experiment: as above; settings: 100 μM NADPH, varied DHCA, Michaelis-Menten model with substrate inhibition
T3 sequence (A4ECA9 1-263 G39A): T1 sequence (A4ECA9 1-263) with G39A
Description: (§7) For each of the mutants and for the wild-type enzyme, kinetic measurements were carried out in the microtiter plate photometer, recording the conversion rates of the enzymes both with constant substrate concentrations with variation of cofactor concentrations and vice versa. To determine the specific enzyme activity, the enzyme concentrations in the cell lysate were determined by densitometry.
(§8) In these measurement series, the reaction rate was determined by linear regression over the first 4 measurements (0 s-18 s).
(§9) The data obtained were evaluated with IGOR Pro. […] For this reason, the classical Michaelis-Menten model was used for evaluating the measurement series at constant substrate concentration and variation of cosubstrate concentration, and the Michaelis-Menten model with substrate inhibition was used for the measurement series with constant cosubstrate concentration and variation of substrate concentration.
(§10) vmax, Km and Ki were determined by nonlinear regression.
(§11) [formula] • v specific enzyme activity, U mg^−1=μmol min^−1 mg^−1 • vmax maximum specific enzyme activity, U mg^−1=μmol min^−1 mg^−1 • cS substrate or cofactor concentration, mol L^−1 • Km semisaturation concentration, mol L^−1 • Ki inhibition constant, mol L^−1

[5] = molecular target: T4, Collinsella aerofaciens 7β-HSDH mutant G39S (parent SEQ ID NO:2) (Collinsella aerofaciens, UniProt A4ECA9, G39S); experiment: as above; settings: 100 μM NADPH, varied DHCA, Michaelis-Menten model with substrate inhibition
T4 sequence (A4ECA9 1-263 G39S): T1 sequence (A4ECA9 1-263) with G39S
Description: as §7, §8, §9, §10, §11

[6] = substrate: NC(=O)c1ccc[n+]([C@@H]2O[C@H](COP(=O)([O-])OP(=O)(O)OC[C@H]3O[C@@H](n4cnc5c(N)ncnc54)[C@H](O)[C@@H]3O)[C@@H](O)[C@H]2O)c1; experiment: Kinetic constants of FDH (characterization of the mutant D221G); assay type: biochemical, Mycobacterium vaccae N10; settings: 37.0 °C
Description: (§1) The following vector constructs were used • pET22b(+) 7β-HSDH: a pET22b(+) vector into which the 7β-HSDH from Collinsella aerofaciens ATCC 25986 had been cloned via the Nde I and Hind III cleavage sites in the usual way. • pET22b(+) 3α-HSDH: a pET22b(+) vector into which the 3α-HSDH from Comamonas testosteroni had been cloned via the Nde I and EcoR I cleavage sites in the usual way (Oppermann et al., J Biochem, 1996, 241(3): 744-749). • pET21a(+) FDH D221G (cf. FIG. 4a): a pET21a(+) vector into which the formate dehydrogenase from Mycobacterium vaccae N10 had been cloned via the Nde I and EcoR I cleavage sites. With site-directed mutagenesis, the aspartate residue (D) at position 221 (without taking into account methionine in position 1) or position 222 (counting from methionine in position 1; cf. SEQ ID NO: 15, 19, 35) of formate dehydrogenase was replaced with a glycine residue (cf. production example 4, below). Formate dehydrogenase carries, at position 1202 of the nucleotide sequence, a single base deletion, which leads to exchange of the last amino acid valine for an alanine. Simultaneously, this base deletion leads to switching-off of the stop codon and to activation of the His·Tag that was originally outside of the reading frame (cf. SEQ ID NO: 34 and 35). • pET21a(+) 7β-HSDH: a pET21a(+) vector, into which the 7β-HSDH from Collinsella aerofaciens ATCC 25986 had been cloned via the Nde I and Xho I cleavage sites in the usual way • pET21a(+) FDH D221G 7β-HSDH (cf. FIG. 4b) • pET21a(+) FDH 7β-HSDH(G39A) 3α-HSDH (cf. FIG. 8) • pCOLA(mod) 3α-HSDH (cf. FIG. 5) Microorganisms
(§2) The production of an FDH mutant, which can regenerate not only NADH, but also NADHP, will be explained in more detail with the mutant D221G.
(§3) This can lead to repulsion of the phosphate group in the NADP^+, which is also negatively charged. The aspartate is therefore replaced with the small uncharged amino acid residue glycine (G).
(§4) First an LB preculture was inoculated from frozen stored material or with a colony from an agar plate and the preculture was incubated overnight. Incubation was carried out at 37° C. and 250 rpm. The OD of the preculture was determined and the culture was inoculated to an OD of 0.1. On reaching an OD of 0.5-1 (after about 2.5 h), it was induced with IPTG (final concentration 1 mM). The cells were harvested three hours after induction.
(§5) The cells were disrupted mechanically with glass beads. For this, 0.5 mL of glass beads were added to 0.5 mL of cell sample in a 1.5-mL reaction vessel and the reaction vessel was shaken for 3 min at maximum frequency (30 s^−1) in a Retsch vibratory mill. After cell maceration, the glass beads were centrifuged off (2 min, 13000 rpm). Before and after maceration, the culture was put on ice, to minimize protein denaturation through heating of the sample in the vibratory mill. This maceration protocol is optimized for the use of samples frozen at −20° C.
(§6) Summary of kinetic constants of FDH at pH 6, 7 and 8.

[7] = substrate: NC(=O)c1ccc[n+]([C@@H]2O[C@H](COP(=O)([O-])OP(=O)(O)OC[C@H]3O[C@@H](n4cnc5c(N)ncnc54)[C@H](OP(=O)(O)O)[C@@H]3O)[C@@H](O)[C@H]2O)c1; experiment: as above; assay type: biochemical, Mycobacterium vaccae N10; settings: 37.0 °C
Description: as §1, §2, §3, §4, §5, §6

[8] = substrate: O=CO; experiment: as above; assay type: biochemical, Mycobacterium vaccae N10; settings: 37.0 °C
Description: as §1, §2, §3, §4, §5, §6

[9] = Preparative biotransformation of 7-keto-LCA by 7β-HSDH with ADH regeneration, HPLC; assay type: biochemical, Collinsella aerofaciens DSM 3979; settings: isolated enzyme with ADH and 2-propanol for NADPH regeneration, 24° C., 24 hours
[10] = assay type: biochemical, Collinsella aerofaciens; settings: 100 μM NADPH
[11] = Photometric activity of 7β-HSDH variants with NADPH or NADH (production example 7); assay type: biochemical, Collinsella aerofaciens
[12] = other: pH 6, substrate sodium formate, pH 6.0
[13] = other: pH 7, substrate sodium formate, pH 7.0
[14] = other: pH 8, substrate sodium formate, pH 8.0

In the case of `NC(=O)c1ccc[n+]([C@@H]2O[C@H](COP(=O)([O-])OP(=O)(O)OC[C@H]3O[C@@H](n4cnc5c(N)ncnc54)[C@H](O)[C@@H]3O)[C@@H](O)[C@H]2O)c1` [NAD^+], the kcat [1] is reported as “Traces” and the kcat [2] is reported as “Traces”.

With `NC(=O)C1=CN([C@@H]2O[C@H](COP(=O)(O)OP(=O)(O)OC[C@H]3O[C@@H](n4cnc5c(N)ncnc54)[C@H](O)[C@@H]3O)[C@@H](O)[C@H]2O)C=CC1` [NADH] the kcat [1] was “Traces” and the kcat [2] was “Traces”.

For `C[C@H](CCC(=O)O)[C@H]1CC[C@H]2[C@@H]3C(=O)C[C@@H]4CC(=O)CC[C@]4(C)[C@H]3CC(=O)[C@]12C` [DHCA, Dehydrocholic acid], the “activity of 7β-HSDH against the test substance” value (7β-HSDH) was 119 U/ml, the Vmax [1] was 28.33 U/mg protein and the kcat [1] was 875.35 1 μmol/(μmol × min). It also gave a Vmax [3] of 14.6 ± 1.0 U/mg, a Vmax ([3]; listed as DCS) of 14.6 ± 1.0 U/mg and a Vmax ([3]; listed as dehydrocholic acid) of 14.6±1.0 U/mg. It also gave a Vmax ([4]; listed as DCS) of 21.0 ± 1.1 U/mg, a Vmax ([4]; listed as dehydrocholic acid) of 21.0±1.1 U/mg and a Vmax ([5]; listed as DCS) of 20.7 ± 1.0 U/mg. The Vmax ([5]; listed as dehydrocholic acid) was 20.1±1.0 U/mg.

B1: Mycobacterium vaccae formate dehydrogenase (FDH) mutant D221G (= D222G of SEQ ID NO:36; SEQ ID NO: 15, 19, 35) (Mycolicibacterium vaccae; D222G) (protein)
chain: MAKVLCVLYDDPVDGYPKTYARDDLPKIDHYPGGQILPTPKAIDFTPGQLLGSVSGELGLREYLESNGHTLVVTSDKDGPDSVFERELVDADVVISQPFWPAYLTPERIAKAKNLKLALTAGIGSDHVDLQSAIDRNVTVAEVTYCNSISVAEHVVMMILSLVRNYLPSHEWARKGGWNIADCVSHAYDLEAMHVGTVAAGRIGLAVLRRLAPFDVHLHYTGRHRLPESVEKELNLTWHATREDMYPVCDVVTLNCPLHPETEHMINDETLKLFKRGAYIVNTARGKLCDRDAVARALESGRLAGYAGDVWFPQPAPKDHPWRTMPYNGMTPHISGTTLTAQARYAAGTREILECFFEGRPIRDEYLIVQGGALAGTGAHSYSKGNATGGSEEAAKFKKAAENSSSVDKLAAALEHHHHHH
notes: single-base deletion at the 3' end gives C-terminal read-through His-tag (last Val to Ala)
Work on B1 yielded a Km [6, 12] of 830 µM, a Km [6, 13] of 610 µM and a Km [6, 14] of 520 µM. The Km [7, 12] was 300 µM, the Km [7, 13] was 510 µM and the Km [7, 14] was 1010 µM. It also gave a Km ([8]; other: pH 6, cofactor NAD^+, pH 6.0) of 46860 µM, a Km ([8]; other: pH 7, cofactor NAD^+, pH 7.0) of 45560 µM and a Km ([8]; other: pH 8, cofactor NAD^+, pH 8.0) of 59260 µM.

B2: 7β-HSDH WT: 7β-hydroxysteroid dehydrogenase from Collinsella aerofaciens ATCC 25986 (DSM 3979), SEQ ID NO:2, NADPH-dependent (protein, listed as Collinsella aerofaciens)
chain: T1 sequence (A4ECA9 1-263)
For B2, the “conversion of 7-keto-LCA to UDCA” value [9] was 90%, the “maximum attainable enzyme activities (specific enzyme activities at the maxima of the kinetic curves)” value [10] was about 13 U/mg and the “enzyme activity at substrate concentration of 10 mM dehydrocholic acid” value ([10]; 10 mM dehydrocholic acid) was about 6.7 U/mg. The “Specific activity NADH” value ([11]; cofactor NADH) was 0 U/mg, the “Volumetric activity NADH” value ([11]; cofactor NADH) was 0 U/ml and the “Specific activity NADPH” value ([11]; cofactor NADPH) was 5.6 U/mg. For the same molecule, the “Volumetric activity NADPH” value ([11]; cofactor NADPH) was 134 U/ml, the residual activity (23° C., 1500 min) was 20% and the “activity at 30° C. lower than at 23° C.” value (after 400 min) was “about 30%”. For the same molecule, the “activity loss during storage” value (−20° C., potassium phosphate buffer 50 mM pH 8, some months, repeated freezing and thawing) was “No significant activity loss”.
